Results: patent US20140072613A1 (published 2014)

Columns and labels:
Test in all cases: cell-based or functional assay
[1] = target: T1, NEK3(h) (human, UniProt P51956 1-506, limits assumed)
T1 sequence (looked up): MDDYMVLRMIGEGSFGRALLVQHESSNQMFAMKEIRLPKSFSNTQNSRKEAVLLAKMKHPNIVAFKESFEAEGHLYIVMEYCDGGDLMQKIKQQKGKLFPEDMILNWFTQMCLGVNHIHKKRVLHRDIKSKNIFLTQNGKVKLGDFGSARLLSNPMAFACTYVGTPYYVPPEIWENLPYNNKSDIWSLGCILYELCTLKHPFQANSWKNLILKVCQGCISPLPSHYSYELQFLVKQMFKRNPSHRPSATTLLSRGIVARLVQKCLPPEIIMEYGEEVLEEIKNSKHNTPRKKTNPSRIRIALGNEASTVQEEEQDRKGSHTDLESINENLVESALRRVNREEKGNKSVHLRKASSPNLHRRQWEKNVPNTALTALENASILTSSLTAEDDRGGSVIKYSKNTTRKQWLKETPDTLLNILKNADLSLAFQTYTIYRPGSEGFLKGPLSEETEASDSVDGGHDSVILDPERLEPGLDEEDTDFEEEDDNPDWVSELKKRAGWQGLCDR

[2] = target: Abl(Y253F)(h) (human, UniProt P00519 27-1130, limits assumed)
[3] = target: T2, TAO3(h) (human, UniProt Q9H2K8 1-314, limits assumed)
T2 sequence (looked up): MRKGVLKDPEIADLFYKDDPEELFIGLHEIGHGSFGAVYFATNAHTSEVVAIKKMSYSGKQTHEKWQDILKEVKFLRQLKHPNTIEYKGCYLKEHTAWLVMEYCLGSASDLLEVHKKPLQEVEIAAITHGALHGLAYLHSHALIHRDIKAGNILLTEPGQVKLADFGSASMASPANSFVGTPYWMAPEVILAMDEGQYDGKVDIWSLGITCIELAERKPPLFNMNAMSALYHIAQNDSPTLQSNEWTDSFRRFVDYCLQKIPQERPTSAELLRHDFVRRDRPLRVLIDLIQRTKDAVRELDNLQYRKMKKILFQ

[4] = target: Rsk1(h) (human, UniProt Q15418 1-735)
[5] = target: STK33(h) (human, UniProt Q9BYT3 1-514, limits assumed)
[6] = target: PAK2(h) (human, UniProt Q13177 1-524)
[7] = target: T3, DYRK2(h) (human, UniProt Q92630 1-601, limits assumed)
T3 sequence (looked up): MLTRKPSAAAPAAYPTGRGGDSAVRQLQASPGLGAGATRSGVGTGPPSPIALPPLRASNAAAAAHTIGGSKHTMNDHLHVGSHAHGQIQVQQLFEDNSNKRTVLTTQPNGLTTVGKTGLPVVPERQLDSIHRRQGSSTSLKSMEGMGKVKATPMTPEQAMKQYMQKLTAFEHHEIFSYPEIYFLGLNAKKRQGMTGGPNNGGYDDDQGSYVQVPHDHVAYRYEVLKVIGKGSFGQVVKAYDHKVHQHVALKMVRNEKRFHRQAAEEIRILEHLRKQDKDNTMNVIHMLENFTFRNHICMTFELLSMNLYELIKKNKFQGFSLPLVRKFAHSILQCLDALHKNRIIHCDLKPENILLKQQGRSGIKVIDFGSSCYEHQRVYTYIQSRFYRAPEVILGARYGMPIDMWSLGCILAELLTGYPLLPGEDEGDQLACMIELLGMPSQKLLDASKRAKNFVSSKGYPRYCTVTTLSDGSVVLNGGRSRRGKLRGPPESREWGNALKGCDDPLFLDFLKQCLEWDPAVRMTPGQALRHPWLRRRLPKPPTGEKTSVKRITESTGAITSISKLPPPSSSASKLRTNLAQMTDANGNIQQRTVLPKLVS

[8] = target: CaMKIIγ(h) (human, UniProt Q13555 1-558, limits assumed)
[9] = target: T4, EphA1(h) (human, UniProt P21709 569-976, limits assumed)
T4 sequence (looked up): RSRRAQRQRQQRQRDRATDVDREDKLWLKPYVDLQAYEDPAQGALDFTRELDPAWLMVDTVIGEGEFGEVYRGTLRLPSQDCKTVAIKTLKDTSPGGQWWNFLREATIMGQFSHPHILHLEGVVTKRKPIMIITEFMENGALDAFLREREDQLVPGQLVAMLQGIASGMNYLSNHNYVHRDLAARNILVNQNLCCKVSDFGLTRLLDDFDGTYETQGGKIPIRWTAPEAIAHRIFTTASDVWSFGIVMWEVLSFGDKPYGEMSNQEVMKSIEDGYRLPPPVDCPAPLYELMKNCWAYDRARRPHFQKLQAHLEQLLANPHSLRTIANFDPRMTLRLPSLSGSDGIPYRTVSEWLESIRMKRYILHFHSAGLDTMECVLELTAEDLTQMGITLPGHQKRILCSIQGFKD

[10] = target: Met(Y1248C)(h) (human, UniProt P08581-2 974-1408, limits assumed)
[11] = target: EGFR(T790M,L858R)(h) (human, UniProt P00533 696-1210, limits assumed)
[12] = target: Ros(h) (human, UniProt P08922 1883-2347, limits assumed)
[13] = target: Abl(T315I)(h) (human, UniProt P00519 27-1130, limits assumed)

| Binder | % activity, 100 µM [1] [%] | % activity, 100 µM [2] [%] | % activity, 100 µM [3] [%] | % activity, 100 µM [4] [%] | % activity, 100 µM [5] [%] | % activity, 100 µM [6] [%] | % activity, 100 µM [7] [%] | % activity, 100 µM [8] [%] | % activity, 100 µM [9] [%] | % activity, 100 µM [10] [%] | % activity, 100 µM [11] [%] | % activity, 100 µM [12] [%] | % activity, 100 µM [13] [%] |
| --- | --- | --- | --- | --- | --- | --- | --- | --- | --- | --- | --- | --- | --- |
| KAFAKLAARLYRKALARQLGVAA [MMI-0400] | 85 | 78 | 67 | 54 | 52 | 59 | 195 | 3 | 61 | 36 | 78 | 99 | 105 |
| FAKLAARLYRKALARQLGVAA [MMI-0300] | 92 | 86 | 77 | 46 | 45 | 65 | 155 | 5 | 73 | 84 | 85 | 95 | 97 |
